Reference: PMC10325919 (2023)
Starred links: 1 amine or outer side, 2 acyl side, 3 side chain; linkers in the order of their positions; H or OH if unused. Non-standard residues stand in square brackets, D forms with d. No end group written: not given here. Lys(Me3) = C[N+](C)(C)CCCC[C@H](N)C(=O)O; Ethylenediamine = C(CN[*:2])N[*:1]; 5‑FAM = 5-carboxyfluorescein; GABA = NCCCC(=O)O

Target: T1, E. coli expressed BAHD1(aa:588–780) (UniProt Q8TBE0 588-780)
T1 chain: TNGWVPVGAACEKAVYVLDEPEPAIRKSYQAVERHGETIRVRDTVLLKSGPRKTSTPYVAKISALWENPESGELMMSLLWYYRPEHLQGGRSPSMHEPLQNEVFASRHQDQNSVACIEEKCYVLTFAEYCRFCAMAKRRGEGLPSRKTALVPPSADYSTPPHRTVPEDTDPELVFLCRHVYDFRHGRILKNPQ
Assay: FP

- Kd: 700 nM
Binder: PRKQLATKAAR[Lys(Me3)]SAPATGG-{Ethylenediamine-GABA-5‑FAM} [H3 16–35 K27me3 peptide]
